This series concerns the molecule itself. Description: SDS gel and Western blot, self-association (dimer band). (In general: Immunoblotting shows a protein as a band on a membrane.)

B1: secreted form of the factor with tags (94 AA+tags) expressed in E. coli (other)
chain: MEPLAVVDLRPQSSVKVEVHFQDKVEEMSIRLDQTVAELKKHLKTVVQLSTSNMLLFYLDQEAPFGPEEMKYSSRALHSYGIRDGDKIYVEPRMKDDDDKKGEFEAYVEQKLISEEDLNSAVDHHHHHH
notes: Expressed from pTrcHis2-TOPO in E. coli, purified on nickel columns; carries no lipid cofactor; runs at 16 kD with a 32 kD dimer band; also called free factor made in E. coli; E. coli expressed secreted form of the factor
On to B1, for which the binding result is given as “binds”.

Source of the values: US20160251386A1 (published 2016).
